Data as given in PMC2198996.

Biological target: HA1.7 TCR-β chain (human)
Assay: co-IP

Q: For HA1.7 TCR-α chain, which stoichiometry N is on record?
A: 1
